These sequences were tested on Bacillus subtilis (assay: cleaved RNA product abundance (RNA/gDNA barcode ratio) relative to median wild-type variant (ratio to wild type); higher = more accumulation of the downstream cleavage product). Conditions: experiment (reporter, strain, medium): exp 8a: truncated aprE reporter, strain BJT201 with 2% xylose (RNase J1 expressed); cleavage site: glnRA (positions -5 to +31 mutated).
Method in brief: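 Truncated aprE or tetM reporter mRNAs with barcoded RNase Y cleavage-site windows, mutagenized from oligos at a 9% error rate, sat in the B. subtilis chromosome. Cells grew in LB at 37°C from OD600 0.0003 to 0.3. Gel-selected cleaved RNA was reverse transcribed and its barcodes sequenced with those from genomic DNA, collapsing by UMI. Cleaved product abundance equals the RNA:gDNA barcode ratio per construct over the median construct with the unmutated site.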

Going from “CGACATGTCCCGCTTCTTTCATTAATCCCTTAGCAACTGTTTTGCTATATTCATTTACCTTTTAAGAGGAGGAAT” to “CGACATGTCCCGCTTCTTTCATTAATCCCTTAGCAACTGTTTTGCTGTATACATTTACCTTTTAAGAGGAGGAAT”, the “cleaved RNA product abundance” value falls from 0.153 to 0.108.

Going from “CGACATGTCCCGCTTCTTTCATTAATCCCTTAGCAACTGTTTTTCTATATACATTTACCTTTTAAGAGGAGGAAT” to “CGACATGTCCCGCTTCTTTCATTAATCCCTTATCAACTGTTTTGCTATATACATTTACCTTTTAAGAGGAGGAAT”, the “cleaved RNA product abundance” value rises from 0.163 to 0.249.

First: CGACATGTCCCGCTTCTTTCATTAATCCGAAAGCAACTGTTTTGCTATATACATTTACCTTTTAAGAGGAGGAAT
Second: CGACATGTCCCGCTTCTTTCATTAATCCGACAGCAACTGTTTTGCTATATACATTTACCTTTTAAGAGGAGGAAT
The “cleaved RNA product abundance” value of the first is higher: 0.39 for the first, 0.335 for the second.

Going from “CGACATGTCCCGCTTCTTTCATTAATCCGATAACAACTGTTTTGCTATATACATTTACCTTTTAAGAGGAGGAAT” to “CGACATGTCCCGCTTCTTTCATTAATCCGATACCAACTGTTTTGCTATATACATTTACCTTTTAAGAGGAGGAAT”, the “cleaved RNA product abundance” value rises from 0.201 to 0.304.

First: CGACATGTCCCGCTTCTTTCATTAATCCGATAGAAACTGTTTTGCTATATACATTTACCTTTTAAGAGGAGGAAT
Second: CGACATGTCCCGCTTCTTTCATTAATCCGATAGCAAATGTTTTGCTATATACATTTACCTTTTAAGAGGAGGAAT
The “cleaved RNA product abundance” value of the first is lower: 0.302 for the first, 0.41 for the second.

Going from “CGACATGTCCCGCTTCTTTCATTAATCCGATAGCAACTCTTTTGCTATATACATTTACCTTTTAAGAGGAGGAAT” to “CGACATGTCCCGCTTCTTTCATTAATCCGATAGCAACTGCTTTGCTATATACATTTACCTTTTAAGAGGAGGAAT”, the “cleaved RNA product abundance” value rises from 0.19 to 0.492.

Compared with “CGACATGTCCCGCTTCTTTCATTAATCCGATAGCAACTGTTTAGCTATATACATTTACCTTTTAAGAGGAGGAAT”, “CGACATGTCCCGCTTCTTTCATTAATCCGATAGCAACTGTTTTACTATATACATTTACCTTTTAAGAGGAGGAAT” is lower in “cleaved RNA product abundance” value: 0.822 for the first, 0.459 for the second.

Compared with “CGACATGTCCCGCTTCTTTCATTAATCCGATAGCAACTGTTTTCCTATATAAGCTTACCTTTTAAGAGGAGGAAT”, “CGACATGTCCCGCTTCTTTCATTAATCCGATAGCAACTGTTTTGATATATACATTTACCTTTTAAGAGGAGGAAT” is higher in “cleaved RNA product abundance” value: 0.295 for the first, 0.325 for the second.

First: CGACATGTCCCGCTTCTTTCATTAATCCGATAGCAACTGTTTTGCTAGATACATTTACCTTTTAAGAGGAGGAAT
Second: CGACATGTCCCGCTTCTTTCATTAATCCGATAGCAACTGTTTTGCTATATACATCTACCTTTTAAGAGGAGGAAT
The “cleaved RNA product abundance” value of the first is lower: 0.354 for the first, 0.88 for the second.

Compared with “CGACATGTCCCGCTTCTTTCATTAATCCGATAGCAACTGTTTTGCTATATACATTGACCTTTTAAGAGGAGGAAT”, “CGACATGTCCCGCTTCTTTCATTAATCCGATAGCAACTGTTTTGCTATATACATTTAACTTTTAAGAGGAGGAAT” is lower in “cleaved RNA product abundance” value: 0.721 for the first, 0.63 for the second.

Compared with “CGACATGTCCCGCTTCTTTCATTAATCCGATAGCAACTGTTTTGCTATATACATTTACCTTTTAAGAGGAGGAAT”, “CGACATGTCCCGCTTCTTTCATTAATCCGATAGCAACTGTTTTGCTATATACATTTACTTTTTAAGAGGAGGAAT” is lower in “cleaved RNA product abundance” value: 0.795 for the first, 0.547 for the second.

First: CGACATGTCCCGCTTCTTTCATTAATCCGATAGCAACTGTTTTGCTATATAGATTTACCTTTTAAGAGGAGGAAT
Second: CGACATGTCCCGCTTCTTTCATTAATCCGATAGCAACTGTTTTGCTATTTACATTTACCTTTTAAGAGGAGGAAT
The “cleaved RNA product abundance” value of the first is higher: 1.02 for the first, 0.189 for the second.

First: CGACATGTCCCGCTTCTTTCATTAATCCGATAGCAACTGTTTTGTTATATACATTTACCTTTTAAGAGGAGGAAT
Second: CGACATGTCCCGCTTCTTTCATTAATCCGATAGCAACTGTTTTTCTATATACATTTACCTTTTAAGAGGAGGAAT
The “cleaved RNA product abundance” value of the first is lower: 0.378 for the first, 0.413 for the second.

Going from “CGACATGTCCCGCTTCTTTCATTAATCCGATAGCAACTTTTTTGCTATATACATTTACCTTTTAAGAGGAGGAAT” to “CGACATGTCCCGCTTCTTTCATTAATCCGATATCAACTGTTTTGCTATATACATTTACCTTTTAAGAGGAGGAAT”, the “cleaved RNA product abundance” value falls from 1.24 to 0.242.

Going from “CGACATGTCCCGCTTCTTTCATTAATCCGATCGCAACTGTTTTGCTAGATACATTTACCTTTTAAGAGGAGGAAT” to “CGACATGTCCCGCTTCTTTCATTAATCCGATGGCAACTGTTTTGCTATATACATTTACCTTTTAAGAGGAGGAAT”, the “cleaved RNA product abundance” value rises from 0.119 to 0.74.

First: CGACATGTCCCGCTTCTTTCATTAATCCGATTGCAACTGTTTTGCTATATACATTTACCTTTTAAGAGGAGGAAT
Second: CGACATGTCCCGCTTCTTTCATTAATCCGCAGGCAACTGTTTTTCTAAATACAAATACCTTTTAAGAGGAGGAAT
The “cleaved RNA product abundance” value of the first is higher: 0.294 for the first, 0.213 for the second.

Compared with “CGACATGTCCCGCTTCTTTCATTAATCCGCCAGCAACTGTTTTGCTATATAGATTTACCTTTTAAGAGGAGGAAT”, “CGACATGTCCCGCTTCTTTCATTAATCCGCGAGCAACTGTTTTGCTATATACATTTACCTTTTAAGAGGAGGAAT” is higher in “cleaved RNA product abundance” value: 0.284 for the first, 0.318 for the second.

Compared with “CGACATGTCCCGCTTCTTTCATTAATCCGGTAACAACTGTTTTGCTATATACATTTACCTTTTAAGAGGAGGAAT”, “CGACATGTCCCGCTTCTTTCATTAATCCGGTAGCAACTGTTATGCTATATACATTTACCTTTTAAGAGGAGGAAT” is higher in “cleaved RNA product abundance” value: 0.34 for the first, 1.02 for the second.

Compared with “CGACATGTCCCGCTTCTTTCATTAATCCGGTAGCAACTGTTTTGATATATACATTTACCTTTTAAGAGGAGGAAT”, “CGACATGTCCCGCTTCTTTCATTAATCCGGTAGCAACTGTTTTGCAATATACATTTACCTTTTAAGAGGAGGAAT” is higher in “cleaved RNA product abundance” value: 0.316 for the first, 0.533 for the second.

Going from “CGACATGTCCCGCTTCTTTCATTAATCCGGTAGCAACTGTTTTGCTAGATACATTTACCTTTTAAGAGGAGGAAT” to “CGACATGTCCCGCTTCTTTCATTAATCCGGTAGCAACTGTTTTGCTATATACATTTACCTTTTAAGAGGAGGAAT”, the “cleaved RNA product abundance” value rises from 0.545 to 0.945.

Going from “CGACATGTCCCGCTTCTTTCATTAATCCGGTATCAACTGTTTTGCTATATACATTTACCTTTTAAGAGGAGGAAT” to “CGACATGTCCCGCTTCTTTCATTAATCCGTAAACAACTCTTTTGCTATATACATTTACCTTTTAAGAGGAGGAAT”, the “cleaved RNA product abundance” value falls from 0.375 to 0.202.

Going from “CGACATGTCCCGCTTCTTTCATTAATCCGTAAACAACTGTTTTGCTATATACATTTACCTTTTAAGAGGAGGAAT” to “CGACATGTCCCGCTTCTTTCATTAATCCGTAACCAACTGTTTTGCTATATACATTTACCTTTTAAGAGGAGGAAT”, the “cleaved RNA product abundance” value rises from 0.159 to 0.187.

Compared with “CGACATGTCCCGCTTCTTTCATTAATCCGTAAGCAACAGTTTTGCTATATACATTTACCTTTTAAGAGGAGGAAT”, “CGACATGTCCCGCTTCTTTCATTAATCCGTAAGCAACTGATTTGCTATATACATTTACCTTTTAAGAGGAGGAAT” is lower in “cleaved RNA product abundance” value: 0.348 for the first, 0.25 for the second.

Source: the supplement of paper PMC11780869
